Assay results taken from the supplement of paper PMC9876800.

Test system: peptide library, one residue held at a place counted from the S/T acceptor
Assay: relative phosphorylation of the sub-library (ratio to the mean residue at this position); higher = residue favoured
Settings: human
How it was run: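 Relative sub-library phosphorylation is the ratio of each sub-library's signal to the mean residue at that position. The signal came from phosphorimaging of spots on streptavidin membranes, quantified by densitometry, after purified recombinant kinases reacted with biotinylated degenerate peptide sub-libraries in 384-well plates. Reactions held 50 μM peptide and 50 μM ATP spiked with γ-32P-ATP for 90 min under kinase-specific conditions.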

Sequence of CSNK1G1, construct: aa21-end (Q9HCP0 21-422, looked up): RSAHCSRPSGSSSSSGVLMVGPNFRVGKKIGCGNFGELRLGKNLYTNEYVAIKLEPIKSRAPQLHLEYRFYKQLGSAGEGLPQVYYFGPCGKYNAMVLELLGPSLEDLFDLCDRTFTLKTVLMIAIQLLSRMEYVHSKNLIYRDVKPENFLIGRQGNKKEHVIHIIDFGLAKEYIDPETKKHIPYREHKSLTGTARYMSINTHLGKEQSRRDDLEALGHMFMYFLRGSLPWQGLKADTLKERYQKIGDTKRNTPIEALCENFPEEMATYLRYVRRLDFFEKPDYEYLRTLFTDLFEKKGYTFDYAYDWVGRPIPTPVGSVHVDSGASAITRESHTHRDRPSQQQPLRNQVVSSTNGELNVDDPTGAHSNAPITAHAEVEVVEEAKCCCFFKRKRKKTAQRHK

CSNK1G1, construct: aa21-end (from UniProt Q9HCP0)
relative phosphorylation
Settings	at +1	at +2	at +3	at +4	at -1	at -2	at -3	at -4	at -5
A fixed	0.872	1.05	1.29	1.13	1.38	2.1	0.918	1.23	1.22
D fixed	0.317	0.551	0.757	0.828	0.406	1	5.14	1.25	1.11
E fixed	0.4	0.293	0.823	0.662	0.47	1.13	2.32	1.12	0.901
F fixed	0.853	1.21	1.31	1.45	0.713	0.511	0.471	0.984	0.913
G fixed	0.611	1.02	1.62	1.19	1.53	1.19	0.734	1.07	1.04
H fixed	0.731	1.71	1.03	0.976	0.983	0.714	0.633	0.918	1.1
I fixed	2.43	1.06	0.755	0.921	0.927	1.11	0.42	0.799	0.734
K fixed	0.461	1.03	0.731	0.812	1.27	0.674	0.644	0.981	1.44
L fixed	2.32	0.922	0.962	0.894	1.06	0.949	0.482	0.81	0.892
M fixed	1.77	0.951	0.957	0.943	1.01	0.63	0.389	0.796	0.801
N fixed	0.619	0.976	0.842	0.786	0.597	1.53	0.758	0.877	1.02
P fixed	0.326	0.369	0.774	1.15	1.36	1.08	0.646	1	0.87
Q fixed	0.685	0.798	0.732	0.839	0.886	1.08	0.546	0.76	0.798
R fixed	0.771	1.01	0.884	0.713	1.28	0.919	1.07	0.814	1.05
V fixed	2.03	1.01	0.76	0.947	0.978	1.26	0.582	0.763	0.875
W fixed	0.861	1.25	1.4	1.35	1.25	0.608	0.636	1.72	1.24
Y fixed	0.935	1.79	1.37	1.41	0.898	0.511	0.604	1.11	1
pThr fixed	0.575	0.524	0.83	1.73	0.534	3.07	34	4.36	1.61
pTyr fixed	0.734	3.17	4.7	1.83	0.64	2.15	5.42	3.67	2.21
